Target: T1, Cerulean-ICDI1.4 (human)
T1 construct: CaV1.4 alpha1 subunit, human clone NP005174.2; ICDI domain of the distal carboxy tail; Fluorophore cloned KpnI/NotI and the channel peptide NotI/XbaI in pcDNA3, so Cerulean probably precedes the peptide; also called ICDI domain from CaV1.4; source: HEK293, transiently transfected (PEI), in live cells
Experiment: FRET or BRET; live-cell FRET two-hybrid (3^3-FRET) in HEK293 cells on an inverted microscope; Venus-tagged peptide as acceptor, Cerulean-tagged peptide as donor; FRET ratio of each cell against free donor concentration; Tyrode's bath with 2 mM CaCl2, pH 7.4; relative Kd calibrated and converted to Ka = 1/Kd
Settings: partners not purified

Row | Binder | Ka [M⁻¹]
1 | Venus-PreIQ3-IQ-A1.3 (domain or fragment, Limits approximate: about 30 residues PreIQ3 + IQ + about 150 residues A region. Position of the IQ isoleucine (I[0]) on P27732 was inferred as 1656; the paper's numbering (KPY1626, ALQ1635) implies …) not shown | 2.14e+07
2 | Venus-PreIQ3-IQ-A1.3 F[−2]A (domain or fragment, F[-2]A, two residues before the canonical IQ isoleucine (inferred as 1656 on P27732). Limits approximate, as for m1. Venus tag omitted.) not shown | 5.8e+06

Source: PMC8054141, “The molecular basis of the inhibition of CaV1 calcium-dependent inactivation by the distal carboxy tail” (The Journal of Biological Chemistry, 2021)
